Experiment [1] has as its target AT4 receptor of bovine adrenal membranes (bovine). Put plainly: competition for 125I-Ang IV binding, bovine adrenal membranes.
In experiment [2] the target is AT4 receptor of sheep central nervous system (sheep). Put plainly: competition for [125I]Ang IV binding, sheep cerebellar cortical membranes.
Experiment [3] has the same target. As to the kind of experiment: competition for 125I-LVV-haemorphin-7 binding, sheep cerebellar cortical membranes.
In experiment [4] the target is angiotensin AT4 receptor of Macaca fascicularis brain (Macaca fascicularis). As to the kind of experiment: competition for [125I]Ang IV binding, monkey prefrontal cortical sections.
Experiment [5] addresses embryonic chicken AT4 receptor (chicken). As to the kind of experiment: cell-based or functional assay.
The target is the same in experiment [6]. As to the kind of experiment: competition for [125I]Ang IV binding, E13 chicken chorioallantoic membranes.
Experiment [7] deals with embryonic chicken Ang II receptor (chicken). As to the kind of experiment: competition for 125I[Sar1Ile8]Ang II binding, E13 chicken chorioallantoic membranes.
embryonic chicken Ang II receptor (chicken), sequence (P79785 whole entry): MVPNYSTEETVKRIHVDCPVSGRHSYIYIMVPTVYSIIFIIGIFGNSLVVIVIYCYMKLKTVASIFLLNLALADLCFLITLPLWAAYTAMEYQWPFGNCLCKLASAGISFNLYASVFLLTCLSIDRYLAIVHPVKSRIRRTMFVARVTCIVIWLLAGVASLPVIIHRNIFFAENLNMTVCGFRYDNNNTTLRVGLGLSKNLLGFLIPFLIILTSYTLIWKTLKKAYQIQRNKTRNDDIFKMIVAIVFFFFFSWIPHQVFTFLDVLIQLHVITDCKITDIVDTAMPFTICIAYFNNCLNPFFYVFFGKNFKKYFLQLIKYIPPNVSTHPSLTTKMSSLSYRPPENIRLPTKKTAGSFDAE

Results on two molecules are retold here after US20020147129A1.

Where no end group is shown, it is not given here.

embryonic chicken AT4 receptor (chicken), sequence (F1NNE7 entry or part of it): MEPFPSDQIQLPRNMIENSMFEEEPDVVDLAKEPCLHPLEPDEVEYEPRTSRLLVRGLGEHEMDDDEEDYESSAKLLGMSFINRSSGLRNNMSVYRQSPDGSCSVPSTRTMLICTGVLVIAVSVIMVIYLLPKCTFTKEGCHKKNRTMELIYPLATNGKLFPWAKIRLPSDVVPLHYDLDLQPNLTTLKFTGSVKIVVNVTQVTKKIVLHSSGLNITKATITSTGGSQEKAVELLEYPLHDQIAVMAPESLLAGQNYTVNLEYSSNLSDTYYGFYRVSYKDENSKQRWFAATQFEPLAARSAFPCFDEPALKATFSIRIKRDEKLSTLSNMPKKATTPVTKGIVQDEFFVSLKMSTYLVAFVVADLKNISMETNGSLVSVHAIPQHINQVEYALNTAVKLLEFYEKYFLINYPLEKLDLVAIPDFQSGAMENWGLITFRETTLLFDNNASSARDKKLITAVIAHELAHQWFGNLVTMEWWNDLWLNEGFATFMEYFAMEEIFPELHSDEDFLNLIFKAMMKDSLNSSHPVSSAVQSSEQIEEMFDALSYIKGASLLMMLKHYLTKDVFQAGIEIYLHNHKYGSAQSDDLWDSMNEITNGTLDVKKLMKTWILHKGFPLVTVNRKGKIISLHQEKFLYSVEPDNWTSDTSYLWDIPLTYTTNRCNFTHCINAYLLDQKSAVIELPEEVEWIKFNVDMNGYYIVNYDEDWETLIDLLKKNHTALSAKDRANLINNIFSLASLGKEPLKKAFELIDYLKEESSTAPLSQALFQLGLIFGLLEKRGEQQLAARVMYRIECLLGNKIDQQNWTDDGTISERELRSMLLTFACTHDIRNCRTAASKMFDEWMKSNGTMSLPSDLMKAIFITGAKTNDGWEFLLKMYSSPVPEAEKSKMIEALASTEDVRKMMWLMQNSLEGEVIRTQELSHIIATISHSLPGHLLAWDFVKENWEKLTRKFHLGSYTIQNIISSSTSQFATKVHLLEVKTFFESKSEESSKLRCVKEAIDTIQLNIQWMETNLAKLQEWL

Regarding LVVYPWTQRF [LVV-haemorphin-7], in experiment [1], the affinity in competing for ^125I-Ang IV binding fell in the range of 1 to 5 nM. Also, the IC50 (commonly the concentration needed to halve the response being measured) in experiment [2] amounted to 2 nM; in experiment [3], 5.6 nM.

B1: angiotensin IV (peptide)
peptide: VYIHPF
modifications: also: same id also used for [125I]Ang IV tracer, radioiodinated with chloramine T
B1 showed an affinity in competing for ^125I-Ang IV binding in experiment [1] of 1 to 5 nM. In addition, the IC50 in experiment [2] turned out to be 1.13 nM; in experiment [4], 5 nM; in experiment [3], 1 nM; in experiment [6], 18 nM; in experiment [7], 50000 nM. Moreover, the inhibition of neurite outgrowth from E11 chicken sympathetic neurons: half maximal inhibition in experiment [5] is 100 pM. In experiment [5], this molecule showed an inhibition of neurite outgrowth from E11 chicken sympathetic neurons: maximal effect of 1 nM. Moreover, the inhibition of neurite outgrowth from E11 chicken sympathetic neurons: threshold in experiment [5] stood at 10 pM.
